According to patent US20140112930A1 (published 2014):

How the values were obtained:
Test in all cases: SPR 25C, hAng-2FD-mFc captured on anti-mFc, 100 nM analyte
hAng-2FD-mFc N-467-G = target: T1, hAng-2FD-mFc N-467-G (human, UniProt O15123 282-496)
T1 construct: not shown: mouse Fc
T1 chain: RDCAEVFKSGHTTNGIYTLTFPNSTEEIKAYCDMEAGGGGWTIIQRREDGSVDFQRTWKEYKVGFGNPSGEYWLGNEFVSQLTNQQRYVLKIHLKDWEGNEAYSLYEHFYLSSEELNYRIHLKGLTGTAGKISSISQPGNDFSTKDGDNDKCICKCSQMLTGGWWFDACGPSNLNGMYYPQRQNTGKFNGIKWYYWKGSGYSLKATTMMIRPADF

[1] = target: T2, wild-type Ang-2FD-mFc construct (human, UniProt O15123 282-496)
T2 construct: also called WT; hAng-2FD-mFc; not shown: mouse Fc
T2 sequence: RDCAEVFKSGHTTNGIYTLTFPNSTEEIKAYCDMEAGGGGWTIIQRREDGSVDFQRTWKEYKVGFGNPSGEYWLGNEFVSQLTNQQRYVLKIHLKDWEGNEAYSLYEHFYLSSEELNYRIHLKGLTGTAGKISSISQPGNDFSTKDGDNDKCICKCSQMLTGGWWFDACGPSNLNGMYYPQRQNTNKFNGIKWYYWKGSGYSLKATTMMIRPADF

hAng-2FD-mFc Y-475-H = target: T3, hAng-2FD-mFc Y-475-H (human, UniProt O15123 282-496)
T3 construct: not shown: mouse Fc
T3 chain: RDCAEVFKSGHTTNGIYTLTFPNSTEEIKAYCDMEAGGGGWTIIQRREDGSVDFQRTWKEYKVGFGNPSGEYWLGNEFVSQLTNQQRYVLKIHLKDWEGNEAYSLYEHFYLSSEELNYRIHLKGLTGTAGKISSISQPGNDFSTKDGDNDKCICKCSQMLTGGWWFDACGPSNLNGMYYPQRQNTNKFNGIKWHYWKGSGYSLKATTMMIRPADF

hAng-2FD-mFc K-432-N = target: T4, hAng-2FD-mFc K-432-N (human, UniProt O15123 282-496)
T4 construct: not shown: mouse Fc
T4 chain: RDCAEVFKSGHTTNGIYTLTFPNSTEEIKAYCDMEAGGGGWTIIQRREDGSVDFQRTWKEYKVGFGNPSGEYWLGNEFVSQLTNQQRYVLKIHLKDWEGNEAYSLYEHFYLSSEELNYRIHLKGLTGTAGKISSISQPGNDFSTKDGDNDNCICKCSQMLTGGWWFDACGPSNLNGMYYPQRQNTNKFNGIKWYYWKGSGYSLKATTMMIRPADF

hAng-2FD-mFc I-434-M = target: T5, hAng-2FD-mFc I-434-M (human, UniProt O15123 282-496)
T5 construct: not shown: mouse Fc
T5 chain: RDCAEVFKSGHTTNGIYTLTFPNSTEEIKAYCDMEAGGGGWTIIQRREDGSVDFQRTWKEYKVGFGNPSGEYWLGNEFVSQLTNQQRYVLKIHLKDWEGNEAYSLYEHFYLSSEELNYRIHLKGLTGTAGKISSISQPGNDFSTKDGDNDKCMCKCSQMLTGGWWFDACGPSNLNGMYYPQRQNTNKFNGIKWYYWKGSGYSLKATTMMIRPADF

hAng-2FD-mFc S-480-P = target: T6, hAng-2FD-mFc S-480-P (human, UniProt O15123 282-496)
T6 construct: not shown: mouse Fc
T6 chain: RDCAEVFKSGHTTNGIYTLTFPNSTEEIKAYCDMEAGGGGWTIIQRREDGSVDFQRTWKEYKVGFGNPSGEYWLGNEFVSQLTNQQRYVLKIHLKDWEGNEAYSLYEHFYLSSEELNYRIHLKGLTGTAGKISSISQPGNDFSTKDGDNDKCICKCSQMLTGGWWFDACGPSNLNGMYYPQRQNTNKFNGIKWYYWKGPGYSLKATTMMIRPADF

hAng-2FD-mFc F-469-L = target: T7, hAng-2FD-mFc F-469-L (human, UniProt O15123 282-496)
T7 construct: not shown: mouse Fc
T7 chain: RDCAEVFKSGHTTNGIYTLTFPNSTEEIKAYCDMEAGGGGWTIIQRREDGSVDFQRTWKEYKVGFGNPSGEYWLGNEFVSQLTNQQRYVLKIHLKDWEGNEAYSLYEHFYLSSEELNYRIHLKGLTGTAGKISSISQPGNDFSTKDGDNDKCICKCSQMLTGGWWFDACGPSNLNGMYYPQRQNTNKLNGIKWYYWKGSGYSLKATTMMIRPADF

hAng-2FD-mFc S-417-I = target: T8, hAng-2FD-mFc S-417-I (human, UniProt O15123 282-496)
T8 construct: not shown: mouse Fc
T8 chain: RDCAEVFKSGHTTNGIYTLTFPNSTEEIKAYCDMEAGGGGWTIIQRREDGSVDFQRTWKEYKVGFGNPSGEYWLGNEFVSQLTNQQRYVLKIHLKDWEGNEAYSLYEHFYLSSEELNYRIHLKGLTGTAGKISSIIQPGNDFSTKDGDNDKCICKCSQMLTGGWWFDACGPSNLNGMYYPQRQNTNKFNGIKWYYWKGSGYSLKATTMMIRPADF

B1: H1H744N (antibody, V domains shown)
VH: QVQLVQSGVEVKKPGASVKVSCKTSGYTFSNNGFSWVRQAPGQGLEWLGWISGYNGNTNYAQKFQGRVTMTTDTSTSTAYMELRTLRSDDTAVYYCARDQDYSNFHWLDPWGQGTLVTVAS
VL: DIQMTQSPSSVSASVGDRVIITCRASQGLSSWLAWYQQKPGTAPKLLIHSASSLQTGVPSRFSGSGSGTEFALTINSLQPEDFGTYYCQQANSFPLTFGGGTRVEIK
Kd (hAng-2FD-mFc N-467-G): 0.0772 nM
RU (hAng-2FD-mFc N-467-G): 139 RU
T ½ (hAng-2FD-mFc N-467-G): 16.9 h
Kd [1]: 0.0398 nM
RU [1]: 213 RU
T ½ [1]: 15.1 h
Kd (hAng-2FD-mFc Y-475-H): 0.306 nM
RU (hAng-2FD-mFc Y-475-H): 247 RU
T ½ (hAng-2FD-mFc Y-475-H): 2.27 h
Kd (hAng-2FD-mFc K-432-N): 0.0487 nM
RU (hAng-2FD-mFc K-432-N): 137 RU
T ½ (hAng-2FD-mFc K-432-N): 28.2 h
Kd (hAng-2FD-mFc I-434-M): 0.0318 nM
RU (hAng-2FD-mFc I-434-M): 213 RU
T ½ (hAng-2FD-mFc I-434-M): 43.1 h
Kd (hAng-2FD-mFc S-480-P): 0.0225 nM
RU (hAng-2FD-mFc S-480-P): 228 RU
T ½ (hAng-2FD-mFc S-480-P): 35.5 h
Kd (hAng-2FD-mFc F-469-L): 0.195 nM
RU (hAng-2FD-mFc F-469-L): 180 RU
T ½ (hAng-2FD-mFc F-469-L): 3.95 h
Kd (hAng-2FD-mFc S-417-I): 0.0512 nM
RU (hAng-2FD-mFc S-417-I): 127 RU
T ½ (hAng-2FD-mFc S-417-I): 26.5 h
